Positions count from the first letter of the chain named.
T1: Endogenous human IL-23 (human, UniProt Q9NPF7 20-189; P29460 23-328)
T1 construct: also called endogenous human IL-23 from stimulated dendritic cells
T1 sequence 1: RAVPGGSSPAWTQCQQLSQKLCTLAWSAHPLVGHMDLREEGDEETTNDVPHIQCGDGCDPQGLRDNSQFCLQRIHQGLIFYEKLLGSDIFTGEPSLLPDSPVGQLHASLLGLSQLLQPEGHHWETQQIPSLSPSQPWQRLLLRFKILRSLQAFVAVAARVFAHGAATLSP
T1 sequence 2: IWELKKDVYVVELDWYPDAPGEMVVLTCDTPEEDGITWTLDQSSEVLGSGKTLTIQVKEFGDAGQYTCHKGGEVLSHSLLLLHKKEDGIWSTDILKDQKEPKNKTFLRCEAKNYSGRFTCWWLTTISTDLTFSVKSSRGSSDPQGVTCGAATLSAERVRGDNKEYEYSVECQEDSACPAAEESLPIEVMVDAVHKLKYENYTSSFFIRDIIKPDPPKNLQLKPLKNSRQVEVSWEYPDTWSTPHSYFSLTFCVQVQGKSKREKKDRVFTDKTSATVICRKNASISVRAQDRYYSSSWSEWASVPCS

T2: recombinant human IL-23 (human, UniProt Q9NPF7 20-189; P29460 23-328)
T2 construct: also called hIL-23
T2 sequence 1: T1 sequence 1
T2 sequence 2: T1 sequence 2

T3: recombinant cynomologus IL-23 (cynomolgus, limits assumed)
T3 construct: also called cynomolgus IL-23; cyno IL23
T3 chain 1: T1 sequence 1 with T12A, H75R, L131P
T3 chain 2: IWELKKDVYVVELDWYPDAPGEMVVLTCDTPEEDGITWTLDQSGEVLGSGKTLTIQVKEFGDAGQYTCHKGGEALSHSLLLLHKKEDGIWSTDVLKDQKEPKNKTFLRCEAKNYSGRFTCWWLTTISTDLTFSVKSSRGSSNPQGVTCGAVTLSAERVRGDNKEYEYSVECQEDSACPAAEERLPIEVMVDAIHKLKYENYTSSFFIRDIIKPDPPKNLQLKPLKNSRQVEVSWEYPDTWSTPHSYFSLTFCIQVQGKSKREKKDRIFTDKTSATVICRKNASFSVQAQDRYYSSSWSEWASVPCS

B1: A3M0 (antibody, human IgG1, kappa, V domains shown)
VH: QVQLVQSGAEVKKPGSSVKVSCKASGYTFTSYGITWVRQAPGQGLEWMGENYPRSGNTYYNEKFKGRVTITADKSTSTAYMELSSLRSEDTAVYYCARSEFISTVVAPYYYALDYWGQGTLVTVSS
VL: DIVMTQSPDSLAVSLGERATINCKASKKVTIFGSISALHWYQQKPGQPPKLIYNGAKLESGVPDRFSGSGSGTDFTLTISSLQAEDVAVYYCLQNKEVPYTFGGGTKVEIKR
notes: Full length chains; also called humanized mAb A3M0
B2: chimeric 8C92H6 HC1LC1 (antibody, V domains shown)
VH: QVQLQQSGAELARPGTSVKLSCKASGYTFTSYGITWVKQRTGQGLEWIGENYPRSGNTYYNEKFKGKATLTADKSSSTAYMELRSLTSEDSAVYFCARCEFISTVVAPYYYALDYWGQGTSLVTVS
VL: DIVLTQSPASLAVSLGQKATISCKASKKVTIFGSISALHWYQQKPGQPPKLIYNGAKLESGVSARFSDSGSQNRSPFGNQLSFTLTIDPVEADDAATYYCLQNKEVPYTFGGGTKLEIKR
notes: Murine variable regions with human constant regions; also called 8C92H6.HC1LC1 Chimera; 8C9 chimera

Legend:
Endogenous human IL-23 = target: T1, Endogenous human IL-23; test: receptor inhibition ELISA in 25% human pooled AB serum: plate coated with recombinant human IL-23 receptor, endogenous human IL-23 at 5 ng/ml pre-incubated with titrated purified antibody, bound IL-23 detected with biotinylated anti-human IL-12
Method: Recombinant human IL-23 Receptor (R&D systems 1400-IR-050) was coated onto 96 well plates at a concentration of 1 μg/ml. Endogenous human IL-23 at 5 ng/ml final, was pre incubated with a titration of purified mAbs before being added to the pre-coated plates. Detection was performed with biotinylated anti-human IL12 (R&D systems BAF-219), followed by Streptavidin-HRP (GE Healthcare RPN 4401). This neutralisation ELISA used 25% human pooled AB type serum.

recombinant human IL-23 [1] = target: T2, recombinant human IL-23; test: sandwich ELISA (optimised protocol, OD450): plate coated with anti-human IL-12, antibody pre-incubated with constant human IL-23, bound antibody detected with anti-human IgG gamma chain HRP; purified antibody
Method: Optimised assay conditions: Plates were coated with anti human IL12 at 2 μg/diluent (phosphate buffered saline). 50 μl/well of this mixture was incubated overnight at 4° C. The plates were then washed three times with Phosphate Buffered Saline with 0.05% Tween 20 (PBST). Plates were blocked with 4% skim milk powder (Fluka BioChemika #70166) PBS 200 μl/well for a minimum of 1 hour at room temperature. The plates were then washed three times with Phosphate Buffered Saline+0.05% Tween 20 (PBST). Various concentrations of antibody were incubated in a separate plate with a constant concentration of IL-23 for 1 hour at room temperature. 50 ul of each mixture were transferred to the assay plate and incubated at RT for 1 hr. They were then washed three times with Phosphate Buffered Saline+0.05% Tween 20 (PBST). […] 50 μl/well of the detection antibody was added and incubated at RT for 1 hour. The plates were then washed three times with Phosphate Buffered Saline+0.05% Tween 20 (PBST). 50 μl/well of TMB was added to the plates and incubated at RT for 10 min. 50 μl/well of 1 MH₂SO₄ was added. The plate was read at OD450 nm using the SOftmaxPRO versamax plate reader.

recombinant human IL-23 [2] = target: T2, recombinant human IL-23; test: IL-23/IL-23R inhibition ELISA (optimised protocol, OD450): plate coated with human IL23R Fc chimera, antibody pre-incubated with constant human IL-23, bound IL-23 detected with biotinylated anti-human IL-12; purified antibody
[3] = target: T3, recombinant cynomologus IL-23; test: IL-23/IL-23R inhibition ELISA (optimised protocol, OD450): plate coated with human IL23R Fc chimera, antibody pre-incubated with constant cynomolgus IL-23, bound IL-23 detected with biotinylated anti-human IL-12; purified antibody
Method: Optimised protocol: Plates were coated with human IL23R Fc chimera at […] (phosphate buffered saline). 50 μl/well of this mixture was incubated overnight at 4° C. The plates were then washed three times with Phosphate Buffered Saline with 0.05% Tween 20 (PBST). Plates were blocked with 4% skim milk powder (Fluka BioChemika #70166) PBST 100 μl/well for a minimum of 1 hour at room temperature. The plates were then washed three times with Phosphate Buffered Saline+0.05% Tween 20 (PBST). Various concentrations of antibody were incubated in a separate plate with a constant concentration of IL-23 for 1 hour at room temperature. 50 ul of each mixture were transferred to the assay plate and incubated at RT for 1 hr. They were then washed three times with Phosphate Buffered Saline+0.05% Tween 20 (PBST). Bound IL23 was detected by anti human 1L12 Biotin labelled Ab (R&D systems BAF219) diluted to 100 ng/ml in 4% skim milk powder (Fluka BioChemika #70166) PBST. 50 μl/well of the biotinylated antibody was added and incubated at RT for 1 hour. The plates were then washed three times with Phosphate Buffered Saline+0.05% Tween 20 (PBST). SA HRP (GE healthcare RPN4401) was diluted 1/4000 in 4% skim m ilk powder (Fluka BioChemika #70166) PBS, 50 μl/well was added to the plates. The plates were then washed three times with Phosphate Buffered Saline+0.05% Tween 20 (PBST). 50 ul/well of TMB was added to the plates and incubated at RT for 15 min. 25 μl/well of 3 MH₂SO₄ was added to the wells already containing TMB. The plate was read at OD450 nm using the SOftmaxPRO versamax plate reader.

IC50 (read off the curve) (Endogenous human IL-23)	EC50 (read off the curve) (recombinant human IL-23 [1])	IC50 (read off the curve) (recombinant human IL-23 [2])	IC50 (read off the curve) [3]	Binder
~0.01 µg/mL	~0.03 nM	~0.5 nM	~0.7 nM	B1
~0.02 µg/mL	~0.1 nM	~2 nM	~2 nM	B2

Reference: US20090123479A1 (published 2009)
